Results on 1 molecule are retold here after patent US20220249640A1.

The target of this assay is PD-1 (soluble, biotinylated, on sensors or coated on plates) (human) (UniProt Q15116). Briefly: method not stated at the list; Octet curves in FIG. 29.
Sequence of PD-1 (soluble, biotinylated, on sensors or coated on plates) (human) (Q15116 25-167 limits assumed): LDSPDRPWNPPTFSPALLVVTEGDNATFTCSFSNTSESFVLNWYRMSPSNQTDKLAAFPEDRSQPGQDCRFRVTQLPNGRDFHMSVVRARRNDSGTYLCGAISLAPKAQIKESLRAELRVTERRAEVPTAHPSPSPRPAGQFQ

B1: PD1#3 scFv-Fc (Fc fusion, part only; not given: Fc, linker, domain order, not shown: another chain or arm of the molecule; a dimerising Fc or GST; small tags and cut ends)
VH: QVQLVQSGAEVKKPGSSVKVSCKTSGYTFNRFGLTWVRQAPGQGLEWMGWTNPYNGNTRYAQKFQGRVTMTTDTSTSTAYMELRSLRSDDTAMYFCARVVAVNGMDVWGQGTTVTVSS
VL: NFMLTQPHSVSESPGKTVTISCTRNSGSIAAYYVQWYQQRPGSSPTTVIYEDNQRPSGVPDRFSGSIDSSSNSASLTISGLKTEDEADYYCQSYDSSNLWVFGGGTKLTVL
Consider B1, for which the Kd was determined as 0.1 nM.
